The values below come from publication PMC5892887.

One series deals with 1-295 (bacteriophage T4). Put plainly: single-molecule DNA stretching. Particulars: Stopped-flow: 10 mM Tris-HCl pH 8.3, 0.1 mM Na2EDTA, 25 °C, NaCl varied (0.02 M for typical traces); DNA stretching: 0.1 M Na+.
Series [1] relates to ΔPR201 (bacteriophage T4). Put plainly: single-molecule DNA stretching. The conditions noted are these: Stopped-flow: 10 mM Tris-HCl pH 8.3, 0.1 mM Na2EDTA, 25 °C, NaCl varied (0.02 M for typical traces); DNA stretching: 0.1 M Na+.
In series [2] the target is Core domain of bacteriophage T4 gene 32 protein (*III; protein minus both N- and C-domains) (bacteriophage T4) (UniProt P03695). Put plainly: cross-linking + other: MALDI mass spectrometry; MALDI mass-spectroscopic analysis of the EDC/NHS cross-linked reaction mixture of CTD and core domain.
Series [3] shares this target. Put plainly: cross-linking; EDC/NHS zero-length cross-linking in solution, read by SDS-PAGE; 20 uM CTD and 4 uM core domain (*III) (5:1), 40 mM MES pH 6.0, 5% glycerol, 0.5 mM EDC, 1.25 mM NHS, room temperature; also with rising p(dT)7 or NaCl.
In series [4] the test system is *I (gp32 lacking C-domain) (bacteriophage T4). Put plainly: single-molecule DNA stretching. Particulars: Stopped-flow: 10 mM Tris-HCl pH 8.3, 0.1 mM Na2EDTA, 25 °C, NaCl varied (0.02 M for typical traces); DNA stretching: 0.1 M Na+.
The subject of series [5] is gp32 (full-length gene 32 protein) (bacteriophage T4). Put plainly: single-molecule DNA stretching. The conditions noted are these: Stopped-flow: 10 mM Tris-HCl pH 8.3, 0.1 mM Na2EDTA, 25 °C, NaCl varied (0.02 M for typical traces); DNA stretching: 0.1 M Na+.

λ-DNA, double-stranded: the Ka in the series on 1-295 (bacteriophage T4) is 5950 M⁻¹; in series [1] it was 4390 M⁻¹.

Take “C-terminal domain (CTD) of bacteriophage T4 gene 32 protein (domain or fragment)”: the stoichiometry N in series [2] was 1. In addition, in series [3], the percent inhibition of cross-linking at [p(dT)7]:[core domain] of 1 is 50% and the percent inhibition of cross-linking with 30 mM NaCl amounted to 50%.

For λ-DNA, single-stranded (force-melted), the Ka in series [4] is 1.5e+06 M⁻¹; in the series on 1-295 (bacteriophage T4) it was 99300 M⁻¹; in series [5], 33600 M⁻¹; in series [1] it was 102000 M⁻¹.

One may read the stoichiometry N as the number of molecules, sites or subunits per partner or assembly.
